Measured values as given in publication PMC5170556 (Molecular Biology of the Cell, 2016).

How the values were obtained:
Bim1 (full-length) = molecular target: T1, Bim1 (full-length) (S. cerevisiae, UniProt P40013 1-344); test: SEC-MALS
T1 sequence (looked up): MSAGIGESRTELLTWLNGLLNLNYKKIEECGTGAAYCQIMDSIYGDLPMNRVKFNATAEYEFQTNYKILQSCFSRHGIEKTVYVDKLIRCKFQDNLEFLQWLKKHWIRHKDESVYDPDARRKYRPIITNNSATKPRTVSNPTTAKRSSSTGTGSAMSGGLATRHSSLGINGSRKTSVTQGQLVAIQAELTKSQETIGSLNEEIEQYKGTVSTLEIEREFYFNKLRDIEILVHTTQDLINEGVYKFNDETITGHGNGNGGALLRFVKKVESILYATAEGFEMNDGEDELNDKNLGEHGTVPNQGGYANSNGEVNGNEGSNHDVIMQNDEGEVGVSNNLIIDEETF

[1] = molecular target: T2, C-terminally green fluorescent protein–tagged Bim1 (S. cerevisiae, UniProt P40013 1-344); test: AUC
T2 sequence (looked up): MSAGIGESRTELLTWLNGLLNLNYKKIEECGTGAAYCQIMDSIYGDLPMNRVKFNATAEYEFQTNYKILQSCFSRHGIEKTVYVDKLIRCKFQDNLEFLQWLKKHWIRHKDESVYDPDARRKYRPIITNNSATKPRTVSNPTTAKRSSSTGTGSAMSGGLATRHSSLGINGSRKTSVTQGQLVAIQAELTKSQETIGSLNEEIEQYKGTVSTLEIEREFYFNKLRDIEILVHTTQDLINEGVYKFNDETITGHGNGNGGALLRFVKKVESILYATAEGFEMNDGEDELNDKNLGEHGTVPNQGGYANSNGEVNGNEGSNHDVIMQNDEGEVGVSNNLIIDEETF

B1: Kar9 (full-length) (natural protein, S. cerevisiae, UniProt P32526 1-644, looked up)
chain: MDNDGPRSMTIGDDFQENFCERLERIHNTLHSINDCNSLNESTTSISETLLVQFYDDLENVASVIPDLVNKKRLGKDDILLFMDWLLLKKYMLYQFISDVHNIEEGFAHLLDLLEDEFSKDDQDSDKYNRFSPMFDVIEESTQIKTQLEPWLTNLKELLDTSLEFNEISKDHMDTLHKIINSNISYCLEIQEERFASPIRHTPSFTLEQLVKLLGTHTETTEPKVPKFSPAEDILSRKFLNLKKNIPPIEKSLTDILPQRIVQFGHRNITNITTLQTILQKKYELIMKDYRFMNSEFRELKVELIDKRWNILFINLNHELLYILDEIERLQSKLLTTKYTKDITIRLERQLERKSKTVSKTFNIIYRALEFSLLDAGVASKTNELAQRWLNIKPTADKILIKSSASNKIATSKKKIPKPKSLGFGRPNSVIGTITQDFQERVAINEGDSNKTPENSTTVALKGKKLGKALLQKMNIKPATSPNSSNAINPFFDPESPNKGKLILSSVPPLPYDETDETTLRVSRGENEKSPDSFITSRHENKVQITETPLMAKNKSVLDIEKDKWNHYRSLPSRIPIYKDKVVKVTVENTPIAKVFQTPPTKITTPNSQVWVPSTRRRTRLRPPTPLSQLLSPREGRLDKTPTY
stoichiometry N (Bim1 (full-length)): 1 Kar9 monomer per Bim1 dimer | stoichiometry N [1]: 1 Kar9 monomer per Bim1 dimer
